Measurements: patent EP2002021B1
Blank lines part the entries; values can stand above or below the substance they belong to.

Experiments:
Assay in all cases: cell-based or functional assay
[1] = target: CCR5-tTA fusion construct containing the low efficiency cleavage site (UniProt P51681)
[2] = target: EGFR-TEV-NIa-Pro cleavage (Leu)-tTA (human) (UniProt P00533)
[3] = target: IGF1R-TEV-NIa-Pro cleavage (Leu)-tTA (human) (UniProt P08069)
Sequence of UniProt P08069 (P08069 whole entry, form in doubt): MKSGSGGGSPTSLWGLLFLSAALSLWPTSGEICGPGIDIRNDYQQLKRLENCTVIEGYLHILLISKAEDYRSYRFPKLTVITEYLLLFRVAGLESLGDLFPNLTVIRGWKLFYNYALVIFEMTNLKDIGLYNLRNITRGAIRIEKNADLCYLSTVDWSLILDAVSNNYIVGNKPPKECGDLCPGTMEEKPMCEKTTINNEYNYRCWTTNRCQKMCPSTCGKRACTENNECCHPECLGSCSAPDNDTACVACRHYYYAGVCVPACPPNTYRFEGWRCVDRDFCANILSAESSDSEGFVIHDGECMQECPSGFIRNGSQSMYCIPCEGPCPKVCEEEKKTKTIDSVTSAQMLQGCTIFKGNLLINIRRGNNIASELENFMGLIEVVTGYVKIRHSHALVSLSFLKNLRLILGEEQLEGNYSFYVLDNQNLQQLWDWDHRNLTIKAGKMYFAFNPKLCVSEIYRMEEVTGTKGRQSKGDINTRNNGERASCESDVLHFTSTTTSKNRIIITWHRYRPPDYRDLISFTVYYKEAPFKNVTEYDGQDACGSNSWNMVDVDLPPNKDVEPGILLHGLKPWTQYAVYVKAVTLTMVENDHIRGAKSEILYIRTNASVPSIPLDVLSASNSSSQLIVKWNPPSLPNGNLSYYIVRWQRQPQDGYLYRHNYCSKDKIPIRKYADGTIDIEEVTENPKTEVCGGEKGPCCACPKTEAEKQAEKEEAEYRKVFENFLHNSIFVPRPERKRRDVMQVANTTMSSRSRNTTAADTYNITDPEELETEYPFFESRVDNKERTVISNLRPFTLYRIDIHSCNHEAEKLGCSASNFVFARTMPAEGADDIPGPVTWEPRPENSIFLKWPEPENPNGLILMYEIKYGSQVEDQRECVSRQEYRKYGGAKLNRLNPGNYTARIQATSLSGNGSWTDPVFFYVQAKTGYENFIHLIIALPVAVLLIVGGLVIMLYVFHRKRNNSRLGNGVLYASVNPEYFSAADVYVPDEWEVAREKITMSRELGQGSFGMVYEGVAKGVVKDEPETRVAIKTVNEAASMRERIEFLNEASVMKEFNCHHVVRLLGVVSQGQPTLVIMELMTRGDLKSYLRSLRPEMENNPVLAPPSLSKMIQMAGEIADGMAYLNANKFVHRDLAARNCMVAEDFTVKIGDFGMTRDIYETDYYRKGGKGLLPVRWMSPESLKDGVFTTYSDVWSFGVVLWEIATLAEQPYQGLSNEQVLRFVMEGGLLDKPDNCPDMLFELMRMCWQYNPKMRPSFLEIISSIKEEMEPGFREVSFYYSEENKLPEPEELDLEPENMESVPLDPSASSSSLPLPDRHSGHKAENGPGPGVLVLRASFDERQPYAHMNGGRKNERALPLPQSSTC

Sequence of UniProt P51681 (P51681 whole entry, form in doubt, the tested form may be a part): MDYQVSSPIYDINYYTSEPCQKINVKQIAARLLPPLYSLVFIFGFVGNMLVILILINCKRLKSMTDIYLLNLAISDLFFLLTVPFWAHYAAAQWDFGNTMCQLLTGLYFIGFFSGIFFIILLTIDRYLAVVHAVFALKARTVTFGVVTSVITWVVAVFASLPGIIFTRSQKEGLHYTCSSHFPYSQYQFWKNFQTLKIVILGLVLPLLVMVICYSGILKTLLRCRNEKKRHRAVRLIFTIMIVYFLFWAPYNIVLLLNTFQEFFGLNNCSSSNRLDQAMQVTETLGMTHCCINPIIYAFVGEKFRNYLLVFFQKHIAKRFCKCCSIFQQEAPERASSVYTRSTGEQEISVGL

fold induction of reporter gene expression over the background, 1 µg/ml RANTES, clone 34 cells [1]: 40 fold
Substance: Regulated on Activation, Normal T-Cell Expressed and Secreted (RANTES) (from UniProt P13501 24-91) (ligand)

fold increase of luciferase reporter gene activity, 100 ng/ml TGF-alpha [2]: 18.3 fold
Substance: human Transforming Growth Factor - Alpha (from UniProt P01135 40-89) (ligand)

Substance: SHC1-TEV (from UniProt P29353 1-238)
fold increase of luciferase reporter gene activity, 1 µM IGF-1 [3]: 90 fold

Substance: PLC Gamma1-TEV
fold increase of luciferase reporter gene activity, 2.5 ng/ml EGF [2]: 12.3 fold
fold increase of luciferase reporter gene activity, 100 ng/ml TGF-alpha [2]: 18.3 fold
